Results as given in the supplement of paper PMC9112550, “Optimization of the antimicrobial peptide Bac7 by deep mutational scanning” (BMC Biology, 2022).

System: Escherichia coli TOP10
Experiment: shrunken log2 fold change of peptide-encoding DNA abundance (4.5 h post-induction vs induction); higher = less antimicrobial activity (less host growth inhibition)
Conditions: time post-induction: 4.5 h; library: site-saturation at positions 5, 18, 19, 20
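Further: peptides expressed intracellularly from a pBAD plasmid library in pooled LB shake-flask culture, induced with 0.3% L-arabinose, DNA abundance read by NGS, three biological replicates, DESeq2 with apeglm shrinkage.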

Sequence | shrunken log2 fold change
RRIRLRPPRLPRPRPRPSFHPRP | -0.457
RRIRYRPPRLPRPRPRPSYRPRP | -0.0896
RRIRYRPPRLPRPRPRPYPAPRP | -0.641
RRIRWRPPRLPRPRPRPMCLPRP | -0.0933
RRIRLRPPRLPRPRPRPIEPPRP | 0.144
RRIRVRPPRLPRPRPRPDAGPRP | 0.13
RRIRHRPPRLPRPRPRPSDEPRP | -0.000726
RRIRFRPPRLPRPRPRPERFPRP | -0.104
RRIRERPPRLPRPRPRPLSGPRP | -0.135
RRIRFRPPRLPRPRPRPKYSPRP | -0.14
RRIRWRPPRLPRPRPRPALEPRP | 0.939
RRIRVRPPRLPRPRPRPAYFPRP | -0.325
RRIRMRPPRLPRPRPRPKPVPRP | 0.895
RRIRKRPPRLPRPRPRPLEHPRP | 0.156
RRIRKRPPRLPRPRPRPDVHPRP | -0.00151
RRIRKRPPRLPRPRPRPLVCPRP | 0.191
RRIRARPPRLPRPRPRPKRSPRP | 0.427
RRIRARPPRLPRPRPRPMLRPRP | 0.155
RRIRERPPRLPRPRPRPVWWPRP | 0.149
RRIRDRPPRLPRPRPRPIHWPRP | -0.18
RRIRERPPRLPRPRPRPVSYPRP | 0.0843
RRIRQRPPRLPRPRPRPCLPPRP | -0.186
RRIRMRPPRLPRPRPRPWKYPRP | -0.198
RRIRKRPPRLPRPRPRPLQHPRP | 0.657
RRIRQRPPRLPRPRPRPQKHPRP | -0.324

Sequence | shrunken log2 fold change
RRIRARPPRLPRPRPRPNFTPRP | 0.134
RRIRDRPPRLPRPRPRPPKTPRP | 0.257
RRIRRRPPRLPRPRPRPSMDPRP | 0.0821
RRIRTRPPRLPRPRPRPNVTPRP | -0.182
RRIRWRPPRLPRPRPRPFLWPRP | 0.0802
RRIRNRPPRLPRPRPRPAMTPRP | 0.157
RRIRTRPPRLPRPRPRPDFKPRP | -0.172
RRIRGRPPRLPRPRPRPMTYPRP | 0.274
RRIRWRPPRLPRPRPRPTSNPRP | -0.0919
RRIRIRPPRLPRPRPRPYMTPRP | -1.6
RRIRCRPPRLPRPRPRPTLDPRP | 0.337
RRIRTRPPRLPRPRPRPTQDPRP | 0.837
RRIRIRPPRLPRPRPRPVRIPRP | 0.154
RRIRLRPPRLPRPRPRPVSRPRP | 0.0317
RRIRQRPPRLPRPRPRPPHWPRP | 0.641
RRIRGRPPRLPRPRPRPNEYPRP | 0.249
RRIRGRPPRLPRPRPRPKCVPRP | 0.505
RRIRNRPPRLPRPRPRPWHTPRP | -0.0681
RRIRVRPPRLPRPRPRPMMQPRP | 0.0134
RRIRYRPPRLPRPRPRPLNSPRP | -0.0402
RRIRTRPPRLPRPRPRPSCQPRP | -0.21
RRIRSRPPRLPRPRPRPLSMPRP | -0.115
RRIRRRPPRLPRPRPRPLWFPRP | 0.396
RRIRPRPPRLPRPRPRPTFNPRP | -0.155
RRIRHRPPRLPRPRPRPWPAPRP | 0.292

Sequence | shrunken log2 fold change
RRIRCRPPRLPRPRPRPTCIPRP | -0.307
RRIRRRPPRLPRPRPRPQDCPRP | -0.151
RRIRIRPPRLPRPRPRPNTGPRP | -0.663
RRIRARPPRLPRPRPRPMMMPRP | 0.246
RRIRGRPPRLPRPRPRPTEYPRP | -0.0607
RRIRHRPPRLPRPRPRPYAMPRP | -0.416
RRIRARPPRLPRPRPRPHQIPRP | 0.354
RRIRHRPPRLPRPRPRPCILPRP | -0.134
RRIRGRPPRLPRPRPRPPPPPRP | 1.54
RRIRQRPPRLPRPRPRPMVDPRP | -0.00399
RRIRNRPPRLPRPRPRPYKCPRP | -0.13
RRIRGRPPRLPRPRPRPIGWPRP | 1.18
RRIRHRPPRLPRPRPRPPTKPRP | 0.161
RRIRIRPPRLPRPRPRPCPRPRP | -0.185
RRIRDRPPRLPRPRPRPYFYPRP | -0.793
RRIRLRPPRLPRPRPRPKIHPRP | -0.312
RRIRERPPRLPRPRPRPGHMPRP | -0.247
RRIRMRPPRLPRPRPRPSTPPRP | 0.0303
RRIRRRPPRLPRPRPRPLRKPRP | 0.793
RRIRHRPPRLPRPRPRPKYGPRP | 0.0196
RRIRVRPPRLPRPRPRPWSPPRP | -0.00502
RRIRWRPPRLPRPRPRPQIKPRP | -0.21
RRIRRRPPRLPRPRPRPTNVPRP | -0.0322
RRIRRRPPRLPRPRPRPTQCPRP | 0.252
RRIRLRPPRLPRPRPRPSVFPRP | -0.364

Sequence | shrunken log2 fold change
RRIRWRPPRLPRPRPRPAEEPRP | 3.62
RRIRMRPPRLPRPRPRPDSLPRP | -0.0169
RRIRNRPPRLPRPRPRPKWWPRP | 0.0325
RRIRSRPPRLPRPRPRPFFTPRP | -0.00429
RRIRCRPPRLPRPRPRPGSIPRP | -0.311
RRIRGRPPRLPRPRPRPWGAPRP | 0.444
RRIRHRPPRLPRPRPRPFPAPRP | -0.405
RRIRGRPPRLPRPRPRPALNPRP | 0.705
RRIRERPPRLPRPRPRPAAEPRP | 0.0581
RRIRARPPRLPRPRPRPNDEPRP | 0.361
RRIRGRPPRLPRPRPRPMDYPRP | 0.0324
RRIRFRPPRLPRPRPRPGDPPRP | 0.566
RRIRMRPPRLPRPRPRPDFKPRP | -0.11
RRIRHRPPRLPRPRPRPNCEPRP | -0.0369
RRIRTRPPRLPRPRPRPTPEPRP | 0.08
RRIRRRPPRLPRPRPRPLSCPRP | -0.146
RRIRVRPPRLPRPRPRPRCGPRP | -0.0269
RRIRPRPPRLPRPRPRPIWYPRP | -0.0201
RRIRHRPPRLPRPRPRPEIRPRP | 0.0924
RRIRIRPPRLPRPRPRPVFTPRP | -0.305
RRIRIRPPRLPRPRPRPPFWPRP | 0.288
RRIRLRPPRLPRPRPRPMYFPRP | -0.252
RRIRHRPPRLPRPRPRPPNAPRP | 0.257
RRIRWRPPRLPRPRPRPYIIPRP | -1.11
RRIRHRPPRLPRPRPRPDFFPRP | -0.26

Sequence | shrunken log2 fold change
RRIRTRPPRLPRPRPRPQAPPRP | -0.1
RRIRFRPPRLPRPRPRPMDAPRP | 0.111
RRIRWRPPRLPRPRPRPHGYPRP | -0.018
RRIRNRPPRLPRPRPRPPEEPRP | -0.032
RRIRNRPPRLPRPRPRPNENPRP | 0.215
RRIRNRPPRLPRPRPRPEVIPRP | 0.00635
RRIRERPPRLPRPRPRPLWTPRP | 0.0667
RRIRDRPPRLPRPRPRPFAYPRP | -0.101
RRIRKRPPRLPRPRPRPDCDPRP | 0.095
RRIRHRPPRLPRPRPRPWYLPRP | -0.748
RRIRVRPPRLPRPRPRPWDGPRP | -0.00294
RRIRLRPPRLPRPRPRPDQDPRP | -0.218
RRIRTRPPRLPRPRPRPAMGPRP | 0.391
RRIRGRPPRLPRPRPRPSFGPRP | 0.0834
RRIRDRPPRLPRPRPRPFYSPRP | -0.304
RRIRGRPPRLPRPRPRPLIVPRP | 0.274
RRIRLRPPRLPRPRPRPNDPPRP | -0.213
RRIRTRPPRLPRPRPRPTWNPRP | -0.0206
RRIRCRPPRLPRPRPRPCTIPRP | 0.105
RRIRARPPRLPRPRPRPAFDPRP | 1
RRIRYRPPRLPRPRPRPGGWPRP | 0.645
RRIRFRPPRLPRPRPRPMKRPRP | 0.347
RRIRFRPPRLPRPRPRPDLVPRP | -0.0465
RRIRMRPPRLPRPRPRPLNTPRP | 0.163
RRIRNRPPRLPRPRPRPNHSPRP | -0.525
